Numbering of substitutions follows the chain as printed.
Legend:
DR4-IgG [1] = target: T1, DR4-IgG (human); experiment: BIAcore SPR; KD relative to Flag.Apo2L.WT
T1 construct: Mature DR4 ECD (amino acids 1-218); Made in human 293 cells; also called DR4 receptor immunoadhesin

DR5-IgG [2] = target: DR5-IgG (human); experiment: BIAcore SPR; KD relative to Flag.Apo2L.WT
DcR2-IgG = target: T2, DcR2-IgG (UniProt Q9UBN6 56-211, limits assumed); experiment: AlphaQuest displacement of biotinylated Apo2L/TRAIL from receptor-IgG; ratio to Flag-Apo2L.WT
T2 construct: not shown: IgG portion, not described
T2 sequence (looked up): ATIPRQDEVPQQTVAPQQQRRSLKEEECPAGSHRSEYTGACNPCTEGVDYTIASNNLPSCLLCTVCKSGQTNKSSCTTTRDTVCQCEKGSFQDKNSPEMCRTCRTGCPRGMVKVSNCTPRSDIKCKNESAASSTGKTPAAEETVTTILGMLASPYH
Text: (§1) This assay produces a signal when a “donor” and “acceptor” bead are brought in close proximity facilitating singlet oxygen-mediated, fluorescence resonance energy transfer. […] The acceptor bead is coated with Staphylococcal Protein A and is used to capture the receptor-IgG protein.

DR4-IgG [3] = target: T1, DR4-IgG; experiment: as above
Text: as §1

DcR1 receptor-IgG = target: T3, DcR1 receptor-IgG (UniProt O14798 26-236, limits assumed); experiment: as above
T3 construct: Receptor-IgG protein captured on Protein A acceptor beads; construct not described; not shown: IgG portion, not described
T3 sequence (looked up): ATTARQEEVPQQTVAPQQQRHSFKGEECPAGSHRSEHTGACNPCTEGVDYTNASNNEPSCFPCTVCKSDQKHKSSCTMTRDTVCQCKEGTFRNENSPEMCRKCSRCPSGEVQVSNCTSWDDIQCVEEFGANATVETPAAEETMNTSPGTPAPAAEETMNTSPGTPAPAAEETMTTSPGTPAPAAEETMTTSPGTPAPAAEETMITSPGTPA
Text: as §1

DR5-IgG [4] = target: DR5-IgG (human); experiment: as above
Text: as §1

DR4-IgG [5] = target: T1, DR4-IgG; experiment: BIAcore SPR, receptor-IgG immobilised; ratio to wild-type Apo2L/TRAIL(114-281)
Procedure: (§2) Briefly, dissociation constants (Kd) for binding of Apo-2L variants (see Tables II and III) to immobilized receptor immunoadhesins were determined from surface plasmon resonance (SPR) measurements on a Pharmacia BIAcore 3000. DR5-IgG (also referred to as Apo-2-IgG) and DcR2-IgG receptor immunoadhesins were prepared as described in WO98/51793 published November 19, 1998 and WO99/10484 published Mar. 9, 1999, respectively. DR4-IgG was prepared as follows. A mature DR4 ECD sequence (amino acids 1-218; Pan et al., supra) was cloned into a pCMV-1 Flag vector (Kodak) downstream of the Flag signal sequence and fused to the CH1, hinge and Fc region of human immunoglobulin G₁ heavy chain as described previously [Aruffo et al., Cell, 61:1303-1313 (1990)]. The immunoadhesin was expressed by transient transfection into human 293 cells and purified from the cell supernatants by protein A affinity chromatography, as described by Ashkenazi et al., Proc. Natl. Acad. Sci., 88:10535-10539 (1991)]. The receptor immunoadhesin proteins were coupled to the sensor chip surface at a level of 300-500 resonance units using amine coupling chemistry (Pharmacia Biosensor). Sensorgrams were recorded for Apo-2L binding at concentrations ranging from 15.6 nM to 500 nM in 2-fold increments. The kinetics constants were determined by non-linear regression analysis and used to calculate the binding constants.

DR5-IgG [6] = target: DR5-IgG (human); experiment: as above
Procedure: as §2

DR5-IgG [7] = target: T4, DR5-IgG (human); experiment: as above
T4 construct: also called Apo-2-IgG
Procedure: as §2

DR4-IgG [8] = target: T1, DR4-IgG; experiment: BIAcore SPR, receptor-IgG immobilised
Procedure: as §2
(§3) These variants were expressed and purified, the purified proteins were assayed for receptor-binding by BIAcore® and bioactivity on SK-MES lung carcinoma cells, as previously described (see, e.g. Hymowitz et al. (2000) Biochemistry 39, 633-640).

DR5-IgG [9] = target: T4, DR5-IgG; experiment: BIAcore SPR, receptor-IgG immobilised
Procedure: as §2, §3

DR5-IgG [10] = target: DR5-IgG (human); experiment: BIAcore SPR, receptor-IgG immobilised
Procedure: as §2, §3

DR5-IgG [11] = target: T4, DR5-IgG; experiment: BIAcore SPR; KD relative to Flag.Apo2L.WT
DR5-IgG [12] = target: T4, DR5-IgG; experiment: AlphaQuest displacement of biotinylated Apo2L/TRAIL from receptor-IgG; ratio to Flag-Apo2L.WT
Text: as §1

B1: Flag-Apo2L.DR4-8 (ligand)
chain: VRERGPQRVAAHITGTRGRSNTLSSPNSKNEKALGRKINSWESSRSGHSFLSNLHLRNGELVIHEKGFYYIYSQTAFRFSEEIKEVTRNDKQMVQYIYKWTDYPDPILLMKSARNSCWSKDAEYGLYSIYQGGIFELKENDRIFVSVTNEHLIDMDHEASFFGAFLVG
DR4-IgG [1]
  KD ratio (mut/wt): 0.2 ratio (mut/wt)
DR5-IgG [2]
  KD ratio (mut/wt): 1100 ratio (mut/wt)
DcR2-IgG
  IC50 ratio (mutant/wt): 15 ratio (mutant/wt)
DR4-IgG [3]
  IC50 ratio (mutant/wt): 1 ratio (mutant/wt)
DcR1 receptor-IgG
  IC50 ratio (mutant/wt): 5.5 ratio (mutant/wt)

B2: Flag-Apo2L.DR5-1 (ligand)
chain: B1 chain with R78K, S80K, V86N, R88K, W100Y, D102S, H151A
DR4-IgG [1]
  KD ratio (mut/wt): 11 ratio (mut/wt)
DR5-IgG [2]
  KD ratio (mut/wt): 2.2 ratio (mut/wt)
DcR2-IgG
  IC50 ratio (mutant/wt): 32 ratio (mutant/wt)
DR5-IgG [4]
  IC50 ratio (mutant/wt): 2.4 ratio (mutant/wt)

B3: Apo2L/TRAIL(114-281) mutant DR5-4 (ligand)
chain: B1 chain with S80R, V86N, R88K, W100Y, D102S, H151Q, I153L, D156N
DR4-IgG [5]
  KD ratio (mutant/wt): 3.1 ratio (mutant/wt)
DR5-IgG [6]
  KD ratio (mutant/wt): 1.3 ratio (mutant/wt)

B4: Flag-Apo2L.DR5-2 (ligand)
chain: B1 chain with R78K, S80K, V86N, R88K, W100Y, D102S
DR4-IgG [1]
  KD ratio (mut/wt): 11 ratio (mut/wt)
DR5-IgG [2]
  KD ratio (mut/wt): 1.9 ratio (mut/wt)
DcR2-IgG
  IC50 ratio (mutant/wt): 5 ratio (mutant/wt)
DR5-IgG [4]
  IC50 ratio (mutant/wt): 2.8 ratio (mutant/wt)

B5: Apo2L/TRAIL(114-281) mutant DR5-23 (ligand)
chain: B1 chain with R78K, S80R, V86N, R88K, W100Y, D102S, H151S, I153L, D156E
notes: Untagged, from pAPOK5.0, purified from E. coli
DR4-IgG [5]
  KD ratio (mutant/wt): 105 ratio (mutant/wt)
DR5-IgG [7]
  KD ratio (mutant/wt): 2.4 ratio (mutant/wt)

B6: Flag-Apo2L.DR5-21 (ligand)
chain: B1 chain with R78K, S80K, V86N, R88K, W100Y, D102S, H151D, I153L, D154N, D156E
DcR2-IgG
  IC50 ratio (mutant/wt): 9.4 ratio (mutant/wt)

B7: Flag-Apo2L.DR4-9 (ligand)
chain: B1 chain with V86R
DR4-IgG [1]
  KD ratio (mut/wt): 4.3 ratio (mut/wt)
DR5-IgG [2]
  KD ratio (mut/wt): 1200 ratio (mut/wt)
DcR2-IgG
  IC50 ratio (mutant/wt): 18 ratio (mutant/wt)
DR4-IgG [3]
  IC50 ratio (mutant/wt): 1.1 ratio (mutant/wt)
DcR1 receptor-IgG
  IC50 ratio (mutant/wt): 4 ratio (mutant/wt)

B8: Apo2L/TRAIL(114-281) mutant DR5-11 (ligand)
chain: B1 chain with S80K, V86N, R88K, W100Y, D102S, H151G, I153V, D156S
DR4-IgG [5]
  KD ratio (mutant/wt): 5 ratio (mutant/wt)
DR5-IgG [6]
  KD ratio (mutant/wt): 2.2 ratio (mutant/wt)

B9: Apo2L/TRAIL(114-281) mutant DR5-5 (ligand)
chain: B1 chain with A76S, S80T, V86N, R88K, W100Y, D102S, H151G, I153L, D156N
DR4-IgG [5]
  KD ratio (mutant/wt): 12.4 ratio (mutant/wt)
DR5-IgG [6]
  KD ratio (mutant/wt): 2.5 ratio (mutant/wt)

B10: Apo2L.DR5-8 (ligand)
chain: B1 chain with A76Q, R78K, S80R, V86N, R88K, W100Y, D102S, H151R, I153L, D154Q
notes: also called Apo2L/TRAIL.DR5-8
DR4-IgG [8]
  DR4-binding (ratio relative to wild-type Apo2L): > 25 ratio relative to wild-type Apo2L
DR5-IgG [9]
  DR5-binding (ratio relative to wild-type Apo2L): 0.6 ratio relative to wild-type Apo2L

B11: Apo2L.DR5-8C (ligand)
chain: B1 chain with A76Q, R78K, S80R, V86N, R88K, W100Y, D102S, I153L
DR4-IgG [8]
  DR4-binding (ratio relative to wild-type Apo2L): 5.5 ratio relative to wild-type Apo2L
DR5-IgG [10]
  DR5-binding (ratio relative to wild-type Apo2L): 0.6 ratio relative to wild-type Apo2L

B12: Flag-Apo2L.DR5-8 (ligand, not shown: small tags and cut ends)
chain: B1 chain with A76Q, R78K, S80R, V86N, R88K, W100Y, D102S, H151R, I153L, D154Q
modifications: N-terminal Flag epitope tag (pFLAG-MAC) is not written because its letters are not given
DR5-IgG [11]
  KD ratio (mut/wt): 0.8 ratio (mut/wt)
DR5-IgG [12]
  IC50 ratio (mutant/wt): 0.7 ratio (mutant/wt)

B13: Apo2L.DR5-8B (ligand)
chain: B1 chain with A76Q, R78K, S80R, V86N, R88K, W100Y, D102S
DR4-IgG [8]
  DR4-binding (ratio relative to wild-type Apo2L): 2.5 ratio relative to wild-type Apo2L
DR5-IgG [10]
  DR5-binding (ratio relative to wild-type Apo2L): 0.6 ratio relative to wild-type Apo2L

— patent US20070098681A1 (published 2007)
